# The NTF2 design screens of Basanta et al. (2020)
# Test: protease stability score; higher = more stable; yeast display proteolysis, trypsin and chymotrypsin;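 note: relative to predicted unfolded state with 0 unfolded-like and 1 meaning tenfold more protease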
row,Sequence,protease stability score
1,HEDEKVLKEMLRILAEVITTGNEEVMKRLADPHVRIDWNGRDIIGMEERYRKLREMGIEFEVRIHLRDTRSVGEKVEFITQLDVHIRVGDKTINFHQETRVDMEKVDGRWRVNEEKVV,0.415
2,HEDEKWMKHMLEMLIRSILTGDEETLHKLADPHVRLEINGQEYWGREQFTHAITQFIRHIRIDSIHVHDYHIQGEKVDFDMRSKFTINGQVDTSRLRVFILKVDGRWVVEEVIIR,2.27
3,HEDEQLAREFVEHLTENLRTGNEERIAELADPHVRVDIGDKHLHGWEWLRRRVRELRFHDLIIHHVEVIDGRIIFRGRMDGRVNGRHTQTEVRVELDKIDGRWTIRHIEIR,2.01
4,HEDERAFEHFIELLMHTLRTGDEELWKHLADPNYLLDVGDKHFIGRERVVEWIRHIRIKDVRVEHYKIQGDKAEIHTRVDGNIDGKELNLHSRFKMHKVDGRWLLEEVEFR,2.22
5,HEDERDAEEMLRLIEEAVYTGDEDLTKYLMDPNVRIHVGDKEFHGRDFLIMRLLEIRHHRFRLELHDIRIQGNKVILDVRWRLDGEINGQRFDDTWDVIIIAEKVNGQWRVQTLIIR,2.59
6,HEDERHLHEIIKRWFEALLTGDEHVLERLLDPNARIDIDGREFIGMEKFAHDISRIKNMQIKHHHIKHVRYVDGVMHWHGQRHGVVNGQEKNVEVIINLFVYDGRFKSMHIKDD,1.06
7,HEDERLMKEALEMIIESFRTGDEHTIEELADPHARVIVGDKHHHGWHELLKRVLELGVKHVNVRDMRVIGDKLEVKLELHVGDKTFDSRLHVLKVNGKWHIQFVEIH,1.75
8,HEDEVFFKLILHLLLEDYRTGDWESLEKFLDPSYKLVFDGKDIHGRERAVTIMRHEAHEMRIEDYHIRSLETQGDKLLLHGKFQGIVNGQRRESEIHLVILKVDGRWLWHSVQIN,1.01
9,HEDHERVRHIIERWWHILETGDEDEMEDMADPNVQIYIGDKRHHGREILAEHVRKFKGKKVNIKRLDIQGDKFRVDGDVHYDGRHHRVRIEIDVVDGRIKRLRIEIE,1.38
10,HEDHKFLNEFVELWLRAEHTGDEDWLEENADPNTRVEVNGKSIHGMEYELRHLHHVLDRFKNMTFDTTVTRIDQQGDKAKVKVEIRLDIDGKDIRLEVDLIITKINGRWIVREIRYK,1.22
11,HEDKKSLEDFLELLLHAIATGDEEILRHLLDPNVRLDIDGRHVVGREELLRWFREIRVKRSDIRIDHFHVQGDKIHADVTDLYDGEFNGKRHLMVLKTELILVKFNGRWHIRTMHFH,2.23
12,HEDKQMMEEAVKLWIETSLTGDWRTFHRLADPHVKLQQGDKDLHGREDTRELMEKLGLDRVDIHIRKFRLYDGRIELHVEENFNGKVFEIFIDMRKVDGRWELHRVELR,1.43
13,HEDNDIMEKAMEDILEKIVTGDEDFLREQMDPHVRSVDIINGRRIERHGREDILELLRRLGFDHVRLERYDIQGDKLIVHSKFTYGDKETELRIIIWKVNGRWVFHSVEVIIL,1.87
14,HEDQERLKRFLEFYVHLINTGDEDRIRDLIDPHARVDIDGRIYHGREMYTQAYRDLGIDYLEIKRWEIQGDKVHLDTRVHIDGVERQTHLIIMKFNGRWIVHTMEVQ,1.56
15,HEDRKLEREIAEEMVKLWLTGDETRFEQLADPHVRVEDGDKESHGRENFSKLVRHRKTEFGIDHIEVEDIRVYDGRVEIRVRMEIGEKETHVRIIQVVINGRLKSVHLHFR,0.771
16,HEDYEDLDKLREHLLTAMKTGDWEVMYRNFDPHVRLLYNGKDTHGREDLRRLVEEMRTRDVRIIITREEIQGNKVFMHGTLEVDGNWNGVDRHIHREVTHIMVKIDGRWIVTVERIR,0.899
17,HEEDEDAERAMRILVEWTKTGDEDKLRRNMDPNVKLWIDGQELHGRDSFKHLLTRFKNVKFEISDIRVLNHEEVVEIQLDTHLRIDGREHRVEIILIVIKVNGKWVMKLVEVRVR,2.12
18,HEEDEMAIKIVELFIHALHTGNEELLHNLLDPEVRLTVDGRRIHGRHWVLRELLHIRVHDIHWTDIDKVNGKIELHTRQDGDVDGRRHEVNVTLVVIKVDGQWILHSVMVE,2.09
19,HEEDERIEHFFELYKRSLKTGNEEIIEYLFDPHVRYEQGDWEVHGRTEFIEMLKHLRFHTVRLRDYRLIGDYVHLDIELEGRVGDKNLHVKSTLIALKVDGRWRIHTLEIE,0.772
20,HEEDHHMEIAIELNQRMLQTGDEELLEKLADPSVRLKQGDKDVHGRHVVSRWLHEVIMKFPNVTIIERHVRIIDGKVHFHGDWHFNGVDQHVTIIAEKVNGRWILKTIELK,0.983
21,HEEDKWMKEVLYRFYEHYQTGDEDSLVKLMDPHAKLSFEGRENHGRDAIKTYWDIMGFDHLRLRDYEIRIIDGRAHLIVDTEIEIGDKRRRTIIIMHVLKFNGRWIVTHFHVEVR,0.835
22,HEEEEEAERFVKEIIHSWKTGNEDDMHRLVDPNVRLIIGDKTYHGRENFVKHMEEWLQRAGVKHFHLRKVDVFDGKLDIHSEVRQGSDETELHISVEKINGRWRLQLVIIV,1.7
23,HEEEEEARDLLKKLLEDFETGNEESLHEYADPNTRTIWDGVEFHGREWMLEIIKQIRVHSVHIHDVRLIDGVLIVKGRMDGDINGQRHTLEVNIFFLKINGRWFFHHMEFE,2.51
24,HEEEEEARRFSTLFNRAMLTGDEDELKEYADPHVRIDINGVILHGRERLREWLEKYLKEIRWHDFKIEHVDVQGDKVDIKVNVDGHINGRRTTRETEIRVEKIDGRWVIREIRFR,0.673
25,HEEEEEFKHVVKEVKEFSETGDWDVLNELMDPHVRLFVNGRLHHGREQISEFWHKVKNVTLIIRHIRPVGEKLEVDGEMKFDGKNIEARIHAQKIDGRWITREYRII,1.12
26,HEEEEEIKEATRLFEEIHRTGDERESREMIDPNALFEVGNFKDHGWDSIHVLMRRVKNVKITLDDFKIQGDKVHLHITENFNGKRVHVTIIAVKINGVWFVHKIRYD,1.44

row,Sequence,protease stability score
1,HEEEEEIVRHLEKLLRDLWTGDWDDIEHNLDPNVRIEYGEKTRVGREKFVKTFFDMGMKLRHVRINEFHVVDGRLHVDTRIDGNFNGVEFRTRVEIIAVKINGKWVLHSVHIL,1.22
2,HEEEEEVKEALKELKELLETGDEDLWRRLADPDTRFELEFEGRHFHLHGWEAVLHFIREIKRRFKNVQFDWKRLNTQGNFAHMHVEIRVGDKIIHLDIIVLKYNGQWLDKRVRIFFE,1.91
3,HEEEEFSRRLAEMLFEFWLTGDEDALERLIDPNARVEMSINGRDFHTHGRDHIIEWVRKIKNLVFRIRRVEIQGEKIILDGEFDVNGVRTRWKLNLVFIDGVVHRLNIIHV,1.72
4,HEEEEHIWRMFKLFIHYLLTGDPDMLARYADPNVRLDINGQEWHGREEMFEMLKIFFDELRIKHFHLRRWRVVDGVAHVDVETHGNYNGREETRKVHIHVVIFNGRMKELVIKIS,2.66
5,HEEEEHSIRILEEWWRALLTGDEDRLKELMDPHVLLLSDVGDKNHIHIGREEAFRFWHEFVRQVKNMTLRIDQVHVQGDKVHLRGTLLINGRERDIRIDILIINGKVREVRIKII,2.45
6,HEEEEIERIAYNIYEYVRKTGDERVMTEMADPDARLIYGDKELVGREHMVQFLRWLLEQYKNVQLHIEHVEMIGDFVKIQSNLNVNGRTIEVELILLKYNGKWRIRSSVFK,1.07
7,HEEEEIVHRFVEDWFRHLKTGDFRSLFQLLDPHTRTDINGKSIHGRDTIMTEIIENMIRLGVNHMEVRIHHISVVDGQAHIDIWLIIRVNGKEQAHHVHILAQKINGKWFLKDIRFE,1.5
8,HEEEEKARYFLEIFFHHLLTGDWHILMELLDPDVRMEYDGKKFHGRESAIEIWRELRVTEIHIRHIHMFNGRVYADTEMRGIVNGVNTNTHSELYVRKYDGRWKVEFVVVH,2.31
9,HEEEEKVERYTRMYWNHLLTGDEDILQELMDPHARSTEIYGDFRIENHGRKAQHWLLRRIDHITSLRIHDVQIVDGVALVDSESDYRIGDKEIRVRTELIVHVVNGKIKSVSISVR,0.896
10,HEEEELARKLVEILLNLLLTGDEDVIRHLLDPNARIHIDGQDNVGREEVIRVWRHWLEKFGIDHIEINRIHYQGEWLHIIGLVKVNGRERPLHIHLNVINGRLKHSEFRIR,1.48
11,HEEEELERTILELVLHYLKTGDEHFMKNMADPNARSTIGDKDLHGREWMSEVWKRIKNVRIEIDRVDMINGVVHLHITVEYNGRRTHLTLHAEKVDGRWIIRELRVE,1.61
12,HEEEELLERAMKELEHILRTGDWELHEKNADPHVKLDVNGRIVHGRELVITVLRRLFEELGVDHIHLHDFKVVGDKMHIDLRIHVGDKEFQLEIIIIKIDGRWHIHSERFN,0.363
13,HEEEELLERVIRLMVENIITGNEDQLNNLVDPHAKIDIDGVILHGRDWVRDLHERVDHMEVRITDWRMIGDKVQTDSRLTNRFNGKEYRRDVRFHAHKINGRWINQTIEIR,0.722
14,HEEEEREKEISDTFLMAWRTGDWKFFHELADPHVRVEIGDKRFIGRELLTKHMRHNVNKVKGMTHTLTHIIIQGDKIHLDGELIVDGRSHKVDFHIIVIDGRLHSLHVIIS,0.574
15,HEEEERLKEVLELVVESFRTGDFNYLKNLIDPNVRVTVGDKDVHGRDFFVRIMSEMRVTHYEFRHVERFNGQAHIDGELDIRIGDKRERHEIKIITLKINGKWYMETLIIQ,1.18
16,HEEEESFKNALEMWIRTVKTGDEKLESDLLDPDARLIFNGQEFHGRELVKKILIDWRKELRVRDFELRDFHIQGDKIYIDGTMFVEINGQTETRKIVIVFVKVNGRWLIHQVTFH,2.24
17,HEEEEWFKEVLHEVERLLMTGDWRTLVELLDPNVRININGVEYHGREEAHHKLEETFRRLGFDHIHFQHVEHQGEKVIVHLEVRFNGQSSIIRFVVLKVNGRWFNHSLQIN,1.29
18,HEEEHDLKEVIRLFLELIDTGDEDVLERLADPNMRVIQGDKTIHGREEVRRTMQEDAKRIDHFEFRLRRVRVINGRLEVDGEFIERAEGHEFRSRVNIMLVKVNGRWVLKIIELR,1.65
19,HEEEHEMRKLAHILFEVLLTGNWKLLAELADPDVLTHINGRDMHGMESELETWKHLRIRDMKIRHVDVQGDKVHLDTELEGEINGRRFQTRTHIHYLLVDGRTKHVKVQID,1.51
20,HEEEHHMRELFKRFWHLFETGDWDKLAKNADPNVRSDINGVDRHGREEVIHELKRIWDELGIDHLELKEVHIQGNKVHSDGKLVYNGVSRKTHIELIVYNGVLKRMSIEIH,1.38
21,HEEEHVAKEIVEILYHAIITGDEDLIKELMDPNVRLDINGKQVHGRDEWIKELRHLRFRHMKLEVKAVEVVDGRIHSDVILHVDGHFDGRTRRLTIEVHWIIFKINGRWHIQSVEIR,2.31
22,HEEEKEIEKWVRLLLEVIQTGDEHWFERMADPNARVEVGEFEKHGRELFFEMTVRIVKKLGVDHVQLRRFDLIDGVALDHMELRIGDKHVEFIHISSKVNGRWFDKEVRVREI,0.939
23,HEEEKHAHEVLQLFIESVETGDWRMWEHLADPHVRLEVNGQEVIGREDALRWLEELLKKLGVDHFKLELEDHHIQGEKVRSITRSHIRVNGVRIDRTTHVIIVVINGRLKHIEVRER,0.204
24,HEEEKHLKEMIERLYHYQLTGNWEELHRLADPHAKWHINGQDIHGMHIAVELILKEVRRIDHVDSDSKRIDMQGDKMRSNVHEIIEVGDKSIRRDSILILVIIDGRIREVSIIIL,1.1
25,HEEEKHMEELSRHFLHNEHTGDEKMLKHLADPHAKVFINGRELHGWDVLVEWLNKFKNIKVELHSERVINGRLFLHVNYHVNGRTTELHLILYIVDGKIHTLILEVR,0.756
